# According to the RNAGym collection of RNA variant scans (doi:10.1093/molbev/msab373):
# B1: Azoarcus group I ribozyme (parent)
# chain: GUGCCUUGCGCCGGGAAACCACGCAAGGGAUGGUGUCAAAUUCGGCGAAACCUAAGCGCCCGCCCGGGCGUAUGGCAACGCCGAGCCAAGCUUCGGCGCCUGCGCCGAUGAAGGUGUAGAGACUAGACGGCACCCACCUAAGGCAAACGCUAUGGUGAAGGCAUAGUCCAGGGAGUGGCGAAAGUCACACAAACCGG
# Variants of: B1
# Experiment: reverse-splicing fitness (ratio to wild type); higher = more active; in vitro selection; Mg2+ level not given
# Summary of the method: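 An in vitro group I ribozyme library with randomized positions was T7-transcribed and gel-purified. In triplicate, 10 pmol RNA in EPPS pH 7.5 was reacted with 50 pmoles of a 30-nt RNA substrate for 1 h at 37 °C across several added MgCl2 levels (1–48 mM), then stopped with EDTA. Products were reverse transcribed from a substrate-complementary primer, PCR-amplified and sequenced (HiSeq 4000). Fitness is a variant's read proportion after selection over that before, normalised to wild type.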
row,Variant,reverse-splicing fitness
1,C82G A111U A145G C169A U176C,0.0263
2,C82G A111U A145G C169A U176G,0.00602
3,C82G A111U A145G C169A U176A,0.0174
4,C82G A111U A120U A145U C150A C169G U176A,0.00335
5,C82G A111U A120U A145U C150A C169G U176G,0.00186
6,C82G A111U A120U A145U C150A C169G U176C,0.003
7,C82G A111U A120U C150U C169U,0.00485
8,C82G A111U A120U C150U C169A,0.0056
9,C82G A111U A120U C150U C169G,0.00565
10,C82G A111U A120U A145G C169U,0.00483
11,C82G A111U A120U A145G C169G,0.00479
12,C82G A111U A120U A145G C169A,0.00459
13,C82G A111U A145C C150G,0.0354
14,C82G A111U A145C C150A,0.0198
15,C82G A111U A145C C150U,0.0722
16,C82G A111U A145G U176G,0.061
17,C82G A111U A145G U176C,0.244
18,C82G A111U A145G U176A,0.197
19,C82G A111U A145G C150U C169G,0.00982
20,C82G A111U A145G C150U C169A,0.0114
21,C82G A111U A145G C150U C169U,0.0119

row,Variant,reverse-splicing fitness
1,C82G A111U A120U C150G U176C,0.00683
2,C82G A111U A120U C150G U176A,0.00389
3,C82G A111U A120U C150G U176G,0.0026
4,C82G A111U A120U A145G U176G,0.00338
5,C82G A111U A120U A145G U176C,0.0173
6,C82G A111U A120U A145G U176A,0.0121
7,C82G A111U A145U C150A U176G,0.0115
8,C82G A111U A145U C150A U176C,0.0315
9,C82G A111U A145U C150A U176A,0.0235
10,C82G A111U A145U C150A C169U U176C,0.0129
11,C82G A111U A145U C150A C169U U176G,0.00579
12,C82G A111U A145U C150A C169U U176A,0.0141
13,C82G A111U A145U C150A C169A U176G,0.00732
14,C82G A111U A145U C150A C169A U176C,0.0126
15,C82G A111U A145U C150A C169A U176A,0.0149
16,C82G A111U A145C C150U C169U U176A,0.0136
17,C82G A111U A145C C150U C169U U176G,0.00613
18,C82G A111U A145C C150U C169U U176C,0.0098
19,C82G A111U A120U C150A C169U U176A,0.00604
20,C82G A111U A120U C150A C169U U176G,0.00236
21,C82G A111U A120U C150A C169U U176C,0.00482

row,Variant,reverse-splicing fitness
1,C82G A111U A145G C169G U176A,0.0187
2,C82G A111U A145G C169G U176C,0.0258
3,C82G A111U A145G C169G U176G,0.00557
4,C82G A111U A145U C150U C169A U176A,0.0143
5,C82G A111U A145U C150U C169A U176G,0.00678
6,C82G A111U A145U C150U C169A U176C,0.0125
7,C82G A111U A120U C150G C169U U176C,0.00541
8,C82G A111U A120U C150G C169U U176G,0.00257
9,C82G A111U A120U C150G C169U U176A,0.00329
10,C82G A111U A120U A145U C150U C169A,0.00323
11,C82G A111U A120U A145U C150U C169U,0.00381
12,C82G A111U A120U A145U C150U C169G,0.00327
13,C82G A111U A120U A145G C169A U176G,0.00196
14,C82G A111U A120U A145G C169A U176A,0.00574
15,C82G A111U A120U A145G C169A U176C,0.00529
16,C82G A111U A145C C150G U176A,0.0157
17,C82G A111U A145C C150G U176C,0.0238
18,C82G A111U A145C C150G U176G,0.00504
19,C82G A111U A145C C169U U176G,0.00474
20,C82G A111U A145C C169U U176C,0.0119
21,C82G A111U A145C C169U U176A,0.014

row,Variant,reverse-splicing fitness
1,C82G A111U A145G C169G,0.00953
2,C82G A111U A145G C169U,0.0131
3,C82G A111U A145G C169A,0.0087
4,C82G A111U A120U C150A U176C,0.00858
5,C82G A111U A120U C150A U176A,0.00758
6,C82G A111U A120U C150A U176G,0.00383
7,C82G A111U A145U C150A C169A,0.0096
8,C82G A111U A145U C150A C169G,0.00845
9,C82G A111U A145U C150A C169U,0.00955
10,C82G A111U A120U C150G C169A U176A,0.00533
11,C82G A111U A120U C150G C169A U176G,0.00291
12,C82G A111U A120U C150G C169A U176C,0.00545
13,C82G A111U A145U C150G C169U U176G,0.00664
14,C82G A111U A145U C150G C169U U176C,0.0115
15,C82G A111U A145U C150G C169U U176A,0.00836
16,C82G A111U A120U C150A C169G U176C,0.00406
17,C82G A111U A120U C150A C169G U176A,0.00827
18,C82G A111U A120U C150A C169G U176G,0.00223
19,C82G A111U A145C C150G C169U,0.00915
20,C82G A111U A145C C150G C169G,0.00784
21,C82G A111U A145C C150G C169A,0.00892
